# Measurements from patent publication US20110118131A1 (published 2011).
# T1: Ep-CAM (UniProt P16422 24-265, limits assumed)
# T1 construct: Amine coupled to a CM5 chip in the Biacore assays
# T1 sequence (looked up): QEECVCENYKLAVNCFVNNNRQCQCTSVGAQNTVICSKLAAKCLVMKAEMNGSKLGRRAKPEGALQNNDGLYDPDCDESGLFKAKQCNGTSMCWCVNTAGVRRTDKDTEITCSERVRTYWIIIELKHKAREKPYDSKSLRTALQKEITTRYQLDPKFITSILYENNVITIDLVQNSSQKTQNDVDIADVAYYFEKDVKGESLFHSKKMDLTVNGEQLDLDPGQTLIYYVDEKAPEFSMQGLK
# Molecular target: T1, Ep-CAM
# Assay: Biacore, Fab periplasmic extract
Binder,fold difference in affinity vs parental ING-1,binding result
"ING-1 light chain Y37E (Fab, V domains shown, Fab, periplasmic extract) VH: QIQLVQSGPELKKPGETVKISCKASGYTFTKYGMNWVKQAPGKGLKWMGWINTYTEEPTYGDDFKGRFAFSLETSASTANLQINNLKSEDTATYFCARFGSAVDYWGQGTSVTVSS VL: DIVMTQAAFSNPVTLGTSGSISCRSSKSLLHSNGITELYWYLQKPGQSPQLLIYQMSNLASGVPDRFSSSGSGTDFTLRISRVEAEDVGVYYCAQNLELPRTFGGGTKLEMKR",0.01 fold,
"ING-1 light chain Y37Q (Fab, V domains shown, Fab, periplasmic extract) VH: QIQLVQSGPELKKPGETVKISCKASGYTFTKYGMNWVKQAPGKGLKWMGWINTYTEEPTYGDDFKGRFAFSLETSASTANLQINNLKSEDTATYFCARFGSAVDYWGQGTSVTVSS VL: DIVMTQAAFSNPVTLGTSGSISCRSSKSLLHSNGITQLYWYLQKPGQSPQLLIYQMSNLASGVPDRFSSSGSGTDFTLRISRVEAEDVGVYYCAQNLELPRTFGGGTKLEMKR",0.02 fold,
"ING-1 light chain Y54E (Fab, V domains shown, Fab, periplasmic extract) VH: QIQLVQSGPELKKPGETVKISCKASGYTFTKYGMNWVKQAPGKGLKWMGWINTYTEEPTYGDDFKGRFAFSLETSASTANLQINNLKSEDTATYFCARFGSAVDYWGQGTSVTVSS VL: DIVMTQAAFSNPVTLGTSGSISCRSSKSLLHSNGITYLYWYLQKPGQSPQLLIEQMSNLASGVPDRFSSSGSGTDFTLRISRVEAEDVGVYYCAQNLELPRTFGGGTKLEMKR",0.05 fold,
"ING-1 light chain Y37S (Fab, V domains shown, Fab, periplasmic extract) VH: QIQLVQSGPELKKPGETVKISCKASGYTFTKYGMNWVKQAPGKGLKWMGWINTYTEEPTYGDDFKGRFAFSLETSASTANLQINNLKSEDTATYFCARFGSAVDYWGQGTSVTVSS VL: DIVMTQAAFSNPVTLGTSGSISCRSSKSLLHSNGITSLYWYLQKPGQSPQLLIYQMSNLASGVPDRFSSSGSGTDFTLRISRVEAEDVGVYYCAQNLELPRTFGGGTKLEMKR",0.09 fold,
"ING-1 light chain Y54D (Fab, V domains shown, Fab, periplasmic extract) VH: QIQLVQSGPELKKPGETVKISCKASGYTFTKYGMNWVKQAPGKGLKWMGWINTYTEEPTYGDDFKGRFAFSLETSASTANLQINNLKSEDTATYFCARFGSAVDYWGQGTSVTVSS VL: DIVMTQAAFSNPVTLGTSGSISCRSSKSLLHSNGITYLYWYLQKPGQSPQLLIDQMSNLASGVPDRFSSSGSGTDFTLRISRVEAEDVGVYYCAQNLELPRTFGGGTKLEMKR",0.03 fold,
"ING-1 light chain Y37K (Fab, V domains shown, Fab, periplasmic extract) VH: QIQLVQSGPELKKPGETVKISCKASGYTFTKYGMNWVKQAPGKGLKWMGWINTYTEEPTYGDDFKGRFAFSLETSASTANLQINNLKSEDTATYFCARFGSAVDYWGQGTSVTVSS VL: DIVMTQAAFSNPVTLGTSGSISCRSSKSLLHSNGITKLYWYLQKPGQSPQLLIYQMSNLASGVPDRFSSSGSGTDFTLRISRVEAEDVGVYYCAQNLELPRTFGGGTKLEMKR",0.02 fold,
"ING-1 light chain Y54S (Fab, V domains shown, Fab, periplasmic extract) VH: QIQLVQSGPELKKPGETVKISCKASGYTFTKYGMNWVKQAPGKGLKWMGWINTYTEEPTYGDDFKGRFAFSLETSASTANLQINNLKSEDTATYFCARFGSAVDYWGQGTSVTVSS VL: DIVMTQAAFSNPVTLGTSGSISCRSSKSLLHSNGITYLYWYLQKPGQSPQLLISQMSNLASGVPDRFSSSGSGTDFTLRISRVEAEDVGVYYCAQNLELPRTFGGGTKLEMKR",0.9 fold,
"ING-1 light chain Y37N (Fab, V domains shown, Fab, periplasmic extract) VH: QIQLVQSGPELKKPGETVKISCKASGYTFTKYGMNWVKQAPGKGLKWMGWINTYTEEPTYGDDFKGRFAFSLETSASTANLQINNLKSEDTATYFCARFGSAVDYWGQGTSVTVSS VL: DIVMTQAAFSNPVTLGTSGSISCRSSKSLLHSNGITNLYWYLQKPGQSPQLLIYQMSNLASGVPDRFSSSGSGTDFTLRISRVEAEDVGVYYCAQNLELPRTFGGGTKLEMKR",0.06 fold,

# Continued, values first:
fold difference in affinity vs parental ING-1,binding result,Binder
,no binding,"ING-1 light chain Y54R (Fab, V domains shown, Fab, periplasmic extract) VH: QIQLVQSGPELKKPGETVKISCKASGYTFTKYGMNWVKQAPGKGLKWMGWINTYTEEPTYGDDFKGRFAFSLETSASTANLQINNLKSEDTATYFCARFGSAVDYWGQGTSVTVSS VL: DIVMTQAAFSNPVTLGTSGSISCRSSKSLLHSNGITYLYWYLQKPGQSPQLLIRQMSNLASGVPDRFSSSGSGTDFTLRISRVEAEDVGVYYCAQNLELPRTFGGGTKLEMKR"
,no binding,"ING-1 light chain Y54H (Fab, V domains shown, Fab, periplasmic extract) VH: QIQLVQSGPELKKPGETVKISCKASGYTFTKYGMNWVKQAPGKGLKWMGWINTYTEEPTYGDDFKGRFAFSLETSASTANLQINNLKSEDTATYFCARFGSAVDYWGQGTSVTVSS VL: DIVMTQAAFSNPVTLGTSGSISCRSSKSLLHSNGITYLYWYLQKPGQSPQLLIHQMSNLASGVPDRFSSSGSGTDFTLRISRVEAEDVGVYYCAQNLELPRTFGGGTKLEMKR"
,no binding,"ING-1 light chain Y54N (Fab, V domains shown, Fab, periplasmic extract) VH: QIQLVQSGPELKKPGETVKISCKASGYTFTKYGMNWVKQAPGKGLKWMGWINTYTEEPTYGDDFKGRFAFSLETSASTANLQINNLKSEDTATYFCARFGSAVDYWGQGTSVTVSS VL: DIVMTQAAFSNPVTLGTSGSISCRSSKSLLHSNGITYLYWYLQKPGQSPQLLINQMSNLASGVPDRFSSSGSGTDFTLRISRVEAEDVGVYYCAQNLELPRTFGGGTKLEMKR"

# Molecular target: IL-1β (UniProt P01584 117-269)
# Assay: Biacore, Fab periplasmic extract on IL-1β
Binder,fold difference in affinity vs original,binding result
"XPA23 light chain S53T (Fab, V domains shown, Single light chain substitution; Fab in periplasmic extract; also called C5A (XPA23) S53T) VH: EVQLLESGGGLVQPGGSLRLSCAASGFTFSKYFMFWVRQAPGKGLEWVSVISPSGGMTRYADSVKGRFTISRDNSKNTLYLQMNSLRAEDTAVYYCARVGYGGNSDYWGQGTLVTVSS VL: DIQMTQSPSSVSASVGDRLTIICRASQDINRWLAWYQQTPGNAPKLLIHSATTLQSGVPSRFSGSGSGTDFTLTINSLQPEDFATYYCQQADSFPLTFGGGTKVEIK",0.95 fold,
"XPA23 light chain D92A (Fab, V domains shown, Single light chain substitution; Fab in periplasmic extract; also called C5A (XPA23) D92A) VH: EVQLLESGGGLVQPGGSLRLSCAASGFTFSKYFMFWVRQAPGKGLEWVSVISPSGGMTRYADSVKGRFTISRDNSKNTLYLQMNSLRAEDTAVYYCARVGYGGNSDYWGQGTLVTVSS VL: DIQMTQSPSSVSASVGDRLTIICRASQDINRWLAWYQQTPGNAPKLLIHSATSLQSGVPSRFSGSGSGTDFTLTINSLQPEDFATYYCQQAASFPLTFGGGTKVEIK",0.4 fold,
"XPA23 light chain A91L (Fab, V domains shown, Single light chain substitution; Fab in periplasmic extract; also called C5A (XPA23) A91L) VH: EVQLLESGGGLVQPGGSLRLSCAASGFTFSKYFMFWVRQAPGKGLEWVSVISPSGGMTRYADSVKGRFTISRDNSKNTLYLQMNSLRAEDTAVYYCARVGYGGNSDYWGQGTLVTVSS VL: DIQMTQSPSSVSASVGDRLTIICRASQDINRWLAWYQQTPGNAPKLLIHSATSLQSGVPSRFSGSGSGTDFTLTINSLQPEDFATYYCQQLDSFPLTFGGGTKVEIK",0.39 fold,
"XPA23 light chain A91T (Fab, V domains shown, Single light chain substitution; Fab in periplasmic extract; also called C5A (XPA23) A91T) VH: EVQLLESGGGLVQPGGSLRLSCAASGFTFSKYFMFWVRQAPGKGLEWVSVISPSGGMTRYADSVKGRFTISRDNSKNTLYLQMNSLRAEDTAVYYCARVGYGGNSDYWGQGTLVTVSS VL: DIQMTQSPSSVSASVGDRLTIICRASQDINRWLAWYQQTPGNAPKLLIHSATSLQSGVPSRFSGSGSGTDFTLTINSLQPEDFATYYCQQTDSFPLTFGGGTKVEIK",0.67 fold,
"XPA23 light chain A91V (Fab, V domains shown, Single light chain substitution; Fab in periplasmic extract; also called C5A (XPA23) A91V) VH: EVQLLESGGGLVQPGGSLRLSCAASGFTFSKYFMFWVRQAPGKGLEWVSVISPSGGMTRYADSVKGRFTISRDNSKNTLYLQMNSLRAEDTAVYYCARVGYGGNSDYWGQGTLVTVSS VL: DIQMTQSPSSVSASVGDRLTIICRASQDINRWLAWYQQTPGNAPKLLIHSATSLQSGVPSRFSGSGSGTDFTLTINSLQPEDFATYYCQQVDSFPLTFGGGTKVEIK",0.51 fold,

# Further lines, results first:
fold difference in affinity vs original,binding result,Binder
,no binding,"XPA23 light chain A91P (Fab, V domains shown, Single light chain substitution; Fab in periplasmic extract; also called C5A (XPA23) A91P) VH: EVQLLESGGGLVQPGGSLRLSCAASGFTFSKYFMFWVRQAPGKGLEWVSVISPSGGMTRYADSVKGRFTISRDNSKNTLYLQMNSLRAEDTAVYYCARVGYGGNSDYWGQGTLVTVSS VL: DIQMTQSPSSVSASVGDRLTIICRASQDINRWLAWYQQTPGNAPKLLIHSATSLQSGVPSRFSGSGSGTDFTLTINSLQPEDFATYYCQQPDSFPLTFGGGTKVEIK"
,no binding,"XPA23 light chain A91I (Fab, V domains shown, Single light chain substitution; Fab in periplasmic extract; also called C5A (XPA23) A91I) VH: EVQLLESGGGLVQPGGSLRLSCAASGFTFSKYFMFWVRQAPGKGLEWVSVISPSGGMTRYADSVKGRFTISRDNSKNTLYLQMNSLRAEDTAVYYCARVGYGGNSDYWGQGTLVTVSS VL: DIQMTQSPSSVSASVGDRLTIICRASQDINRWLAWYQQTPGNAPKLLIHSATSLQSGVPSRFSGSGSGTDFTLTINSLQPEDFATYYCQQIDSFPLTFGGGTKVEIK"
0.26 fold,,"XPA23 light chain D92G (Fab, V domains shown, Single light chain substitution; Fab in periplasmic extract; also called C5A (XPA23) D92G) VH: EVQLLESGGGLVQPGGSLRLSCAASGFTFSKYFMFWVRQAPGKGLEWVSVISPSGGMTRYADSVKGRFTISRDNSKNTLYLQMNSLRAEDTAVYYCARVGYGGNSDYWGQGTLVTVSS VL: DIQMTQSPSSVSASVGDRLTIICRASQDINRWLAWYQQTPGNAPKLLIHSATSLQSGVPSRFSGSGSGTDFTLTINSLQPEDFATYYCQQAGSFPLTFGGGTKVEIK"
,no binding,"XPA23 light chain A91G (Fab, V domains shown, Single light chain substitution; Fab in periplasmic extract; also called C5A (XPA23) A91G) VH: EVQLLESGGGLVQPGGSLRLSCAASGFTFSKYFMFWVRQAPGKGLEWVSVISPSGGMTRYADSVKGRFTISRDNSKNTLYLQMNSLRAEDTAVYYCARVGYGGNSDYWGQGTLVTVSS VL: DIQMTQSPSSVSASVGDRLTIICRASQDINRWLAWYQQTPGNAPKLLIHSATSLQSGVPSRFSGSGSGTDFTLTINSLQPEDFATYYCQQGDSFPLTFGGGTKVEIK"
